Laboratory results taken from the DeepSol protein solubility set.

Test: soluble on expression in E. coli; label from the status in PepcDB or PDB records

Soluble on expression in E. coli, not soluble:
MTESTFPQYPRLVLSKGREKSLLRRHPWVFSGAVSRLEGKANLGETIDIVDHQGKWLARGAWSPASQIRARVWTFDKAESIDIAFFTRRLRQAQQWRDWLAKKDGLDSYRLIAGESDGLPGVTIDRFGHFLVLQLLSAGAEYQRAALISALQTCYPDCAIYDRSDVAVRKKEGMALTQGPVTGELPPALLPIEEHGMKLLVDIQGGHKTGYYLDQRDSRLATRRYVENQRVLNCFSYTGGFAVSALMGGCRQVVSVDTSQDALDIARQNVELNQLDLSKAEFVRDDVFKLLRAYREHGEKFDVIIMDPPKFVENKSQLMGACRGYKDINMLAIQLLNPGGILLTFSCSGLMTSDLFQKIIADAAIDAGRDVQFIEQFRQAADHPVIATYPEGLYLKGFACRVM
MGSDKIHHHHHHMNYFATVARGLETLAAQELEQLGAHSVEPGFCGVAFEGDRTLLYRVNLWARLPFRILVDIHEFPCLDAKDLYRGIQTIDWQNYLTPDMTLAVNVTGKNAHLNHSHFTSLQVKNAIVDQQQEKLGERSNVELHEPDVRVNVHIERDFCTVKLDSSGNSLHRRGYRPAVGSAPLKESLAAALIQLSGWKQDQMFYDPLCGSGTLPLEASLKALNIAPGLFRESFGFENWLDFDLVLLEKLLQEAKDSQLDTLPAPIWGSDHDENVIEQAINNAQNCGVDNHVWFSQMELADVVAPADSGILLCNPPYGERLGRDSDLGAFYKLLGDVLKQRFKGWTAFVLSGNKELSQSIGLKSSKRIAVYNGALPCQLMKYELY
MIEQPSPKVYDELLSIWEEAVRSTHHFLTEADIQFYKPLIRHEYLAAVRLYIIREDSGTIAAFMGLSNDCIEMLFVRPNAHGHGYGSRLVEFAIRKKRIYKVDVNEQNAAALGFYLHMGFETTGRDALDATGKPFPILHLQIPPIRLRKATLEDIDLLRTLFTQSVQNTCSTDYNRLQIQAWTGRGTLQRWHELFQSDLYFLLAEDSRKSQVAGFTSVNSKGYLHSMFVHPDYQRQGIASRLLLKAEEYVRIRQGVSVYSEVSITARPFFEKHGYSIEKEQTVSVGDIEMTNFLMYKRI
MQTGRQQNKGTIFASLNMSRKNRHNVLPRATMLRKKAIQIRLNEAEHKAVETYCSRFKVENRSRWIRETLMKEVIHRLESDTPLLFREEEMR
MGSDKIHHHHHHMNITNNRQYSWVGSREMCLDEISIKQYGEIVIGKYGGNISAGANKNEDGALVWSNGDWEFAAILDGHNSAESVDLVVNTIQKEYENIKEMMNESIDTVFRSIENHILTIFQSSSFKEKCQRIKGETACLLCVRKENYIWWLSIGDCLVYVFHDELHKLGQYALNQRHFYEWIGNVNTFDVPVPCYSSGIRELRTGNNRIVMVTDGVLEYGERRYETPLNLYNDMNRNNIKLEESVHHVLEHVHHQFGRDSATIISWDVENKGKATYPSDQPDKK
MVWSAFLHFYQIGNSGSNAYYTAAAKSMAASWKAFFFAALDPAGFITVDKPPVALWLQALSVKVFGVSDFSVLLPEALAADCIRGRAVWFACAAGVLVVDARVGRDKQHDSVCRTGFASGRSGHAGCWDAGGARWALAGRAKHRAAEDGNRLRDNSSLAALVVYLEQHAGKAKYLAATIRATEAAEMMLHTDRAVMAMGGFGGTDPVLTPEKLEQMAQNGEVKYFLLSGEDRGNNELVQWIQTHCKEVPSSQWGGGQSAAIGGMGRGGMTLYVYNG
MGSDKIHHHHHHMQKLQTVNAETLLYEPLEKPSFVVDSLIPTGLSLFCGSQKIGKSWLMLKLCLCVSQGIPLWDMPTMEGDVLYLCLEDTFCRIQDRLFRLTDEASGRLHFAVASCKLSDGLIVQLEDYLKDYPDSRLIVIDTLQKVRTASKDNAYASDYGDISLIKDFADRHSLAVIVVHHIRKQNDSDVFNKVSGTTGLTGSADATFVLEKEKRASDTAKLYVTGRDTPYQEYTLRFRDCRWELVERKTQEQLAKETIPDVLFRLVDFMRDKEEWIGTATELLAAMGETETIPTVITKWLNEYRTTFLSENRICYQYSRRKDGRRIALARRAGDSGDGGDSDIRIPPCYCH
MSKTVTIRRPSPTKTSEEPAAHQTPIFTQTAAEMLGITSLNTEAAELLEFLSREKLKEIVRLSAKWTQKSARRRMAVADVEHAIRSTRQCGGLNISSVDTLNLGIQQLQPIQGTSTGIYSFLKSSADVDVDKEDTETFIKIPRDLRVISYPLVNEGQPVQSEYTVNVDEDDGNFFEKIVPEVMTMIPEKNTPSSSTTSSLQMFRDAVKTAKIDQKVGLKPSTIEILTVEQQIFMKDIITVCMGQDDKKRHEALYTLETDAGLQVFLPHLTERICKSISANISQRCLSLIIYAGRVLRSLSHNKACDMTVTLHHVLPALLSCCVGRNMCLRPETDNHWALRDFSAKTLVGLVRDQVDKHDAGRTARRLFDFSHRIFRDTGSSFSMIYGTVHILQEFVAGPKKAAWLLTELGETNARCKSHIESGSRIGASQLSIQEAQKLNQQILKCENSIRNRYNLQQQAPGVPINRRFH

Soluble on expression in E. coli, soluble:
MSLTESARIDGVSLYEIVIPMKIPFQISSGTCYTRRSLVVEIREGDLFGYGESAPFEEPFYLGETLETTKVILKNHLLPMILGKEPLSIEEFNHLIKNGIRGNHFARCGVENAYWDLIAKKNKISLKAMIEKKMKNLGVKQEYLASNNYIESGAALGIPEDGRIETLIHQVEESLQEGYRRIKIKIKPGWDVEPLQETRRAVGDHFPLWTDANSSFELDQWETFKAMDAAKCLFHEQPLHYEALLDLKELGERIETPICLDESLISSRVAEFVAKLGISNIWNIKIQRVGGLLEAIKIYKIATDNGIKLWGGTMPESGLGARFLISLASFRGFVFPADVAASEKWYGKGNDLVENTMTDGKIYVPDEPGASFDMTLSHLEALGKKIWESQRGEGHHHHHH
MAPTVERKNINLAPLKAAGVPIFFIVGGPGSGKGTQCDKIVAKYGLTHLSSGDLLRDEVKSGSPRGAQLTAIMESGALVPLEVVLDLVKEAMLKAIEKGSKGFLIDGYPREVAQGQQFESEIQEAKLVLFFDVAEETLVKRLLHRAQTSGRADDNADTIKKRLHTFVTSTAPVVDYYESKGKLVRINAEGSVDDIFAVVVANLDKATSKL
MQYFDVARILTTHGLHGEVKVNVITDFPEDRFAEGMQLELKDDIDRVLTIKKSRPFKQFWLLQFDEITDIDEAEKLRGKILVISEKDRGELPDGVYYYKDIFDCGVIDNETGKRLGKITDIQSPGANDIWLVHEDNGKEYWIPNIADVVKKIDIADKKVYVELMEGLRDEDLEHHHHHH
MSLVTVSDVKQYHFCKAIPWINYVMGYREPSTFSMEEGKKISYEEVVKSLNLTTPVKYEVCLSYNGLSGCIDILAGDRKYTVVEVKAFKRGNFSHFRYQLLAYAYLVRKRLGIVERAILVMEGKKVLEIEPTEEHYRYIENVVKKIEEIVNSEKLPAVNVEKCDFCQYRRICPVSVWSEGHHHHHH
MSLTHAILFDLDGTLVDHASAARAALHAWSPTVGVDTDVERWIELDKWGFARFERGETTHLGQRRDRIRAYLNRELDDATCDDIYSGYLKAYEQNWTAYPDAKGVLDRAVATGAPVGILTNGAAPMQQDKLDRTGLGLPELVMLAASTLDSAKPRPEMYARALTHLGARTATIIGDDWTNDVAAPRELGWNALYLDRSGTDPRADIHSLDELFHEGHHHHHH
MGGSHHHHHHGMASMTGGQQMGRTLYDDDDKDRWGSRKIVVVGGVAGGASVAARLRRLSEEDEIIMVERGEYISFANCGLPYYIGGVITERQKLLVQTVERMSKRFNLDIRVLSEVVKINKEEKTITIKNVTTNETYNEAYDVLILSPGAKPIVPSIPGIEEAKALFTLRNVPDTDRIKAYIDEKKPRHATVIGGGFIGVEMVENLRERGIEVTLVEMANQVMPPIDYEMAAYVHEHMKNHDVELVFEDGVDALEENGAVVRLKSGSVIQTDMLILAIGVQPESSLAKGAGLALGVRGTIKVNEKFQTSDPHIYAIGDAIEVKDFVTETETMIPLAWPANRQGRMLADIIHGHTDSLYKGTLGTSVAKVFDLTVATTGLNEKILKRLNIPYEVVHVQANSHAGYYPNATPVLIKLIFNKDSGKIYGAQTLGRDGVDKRMDVIATAIKANLTVLDLPDLELSYAPPYSSAKDPVNMVGYAASNIVDGFVDTVQWHEIDRIVENGGYLIDVREPNELKQGMIKGSINIPLDELRDRLEEVPVDKDIYITCQLGMRGYVAARMLMEKGYKVKNVDGGFKLYGTVLPERIVY
